From the DeepSol protein solubility set

Assay: soluble on expression in E. coli; label from the status in PepcDB or PDB records
With “MGSDKIHHHHHHMAVVDEAKLRYLDFLSREDRVRHHRYVEEMKQYDMMRSGDINAIAESTRLWNSGLYGYLSDDPLKNAKYRFVTTITLATRFAIEGGMDEEDAYNASDLYIQNLENCKTPDDVRRLHTDMMTFFTWAMADMQKAETHSKAVNECLDYIHYHLHEKITVPILAEHVHLNPTYLSELFKRETGTAISQYITDKRMEAAENMLKYSEYSFDEIAQILAYRSQSHFSKVFKKHSGMTPGEYRTKYAQNGIWPE” the “soluble on expression in E. coli” value was “not soluble”.
For “MGSDKIHHHHHHATETEKDQRKFDYFFYEGLNLKNAGKFDAAYDAFNHCLEIDSTAAPVLYELSSFYVQLNRPEKAVEMLKRAVANSKDNFTYKMALASITRNLGMYGEAAEEYEELVRDYPEKEELNYYLADALTQAGEIGKAIEAYDALESVMGMNEAISMQKYKLYVQLEKPEEAFKEIEKLAAKYPMEARYQIVLGDLHLENGEMDKALACYQKANEIDPTDPYYIVSMANYYEAKGDKEAAEQQIRSALVNEKLDVETKVNILSRYILKLQQTKQGTENANHLFQTLLEQHPEDIDLKLMYGGLLMAQGKTEEAKFQFQLVTEMEPGNAGAWQQLLNLALKGEDIPEVIRICTACMELFPESPEYYFYLGIAYYQQQKYQEALNTYYAGLNIIPKENLPLKSDFYGQIGDIYYQMGQLDQAYKAYDEALKYNDKNVVVLNNYSYFLSLEKKDLKKAERMSAQCIKLEPDNATYLDTYAWIFFVQGNYTLAKIYIESALEKDKTKSAELVDHYGDILFMNGDKEKAVEQWKKAKEMGKDSEILNRKIAEQQYIEDENAK”, the “soluble on expression in E. coli” value was “not soluble”.
With “MAHHHHHHMAPPNGTVCCPEDLKMYSTIQLNQEIEISKNPFPLHEINKKNDIPLCAQEFSDLTDPLYIKKICLEKVPEWNHFTEDNLRVKQILSGLTNQLFEVGLKEETANNYNSIRTRVLFRIYGKHVDELYNTISEFEVYKTMSKYKIAPQLLNTFNGGRIEEWLYGDPLRIDDLKNPTILIGIANVLGKFHTLSRKRHLPEHWDRTPCIFKMMEKWKNQLFKYKNIEKYNCDIHKYIKESDKFIKFMKVYSKSDNLANTIVFCHNDLQENNIINTNKCLRLIDFEYSGFNFLATDIANFFIETSIDYSVSSYPFFEIDKKKYISYENRKLFITAYLSNYLDKSLVVPTPKLIDEILEAVEVQALGAHLLWGFWSIIRGYQTKSYNEFDFFLYAEQRLKMYDDQKEYLISNNI” the “soluble on expression in E. coli” value was “not soluble”.
For “MDMKRRIHLELRNRTPAAVRELVLDNCKSNDGKIEGLTAEFVNLEFLSLINVGLISVSNLPKLPKLKKLELSENRIFGGLDMLAEKLPNLTHLNLSGNKLKDISTLEPLKKLECLKSLDLFNCEVTNLNDYRESVFKLLPQLTYLDGYDREDQEAPDSDAEVDGVDEEEEDEEGEDEEDEDDEDGEEEEFDEEDDEDEDVEGDEDDDEVSEEEEEFGLDEEDEDEDEDEEEEEGGKGEKRKRETDDEGEDD”, the “soluble on expression in E. coli” value was “soluble”.
For “MRVGIKVLGCPKNEADCEVLAGVLREGGHEIVFDVKDADVVVLDTCAFIEDAKRESIDEIFSFVDAKDQYGYKLVVKGCLVQRYYEELKKEIPEVDQWIGVADPEEIANAIENGTDLVPDQPETVYRYRKRIDLEERPYAYVKISDGCDRGCTFCSIPSFKGSLRSRSIEDITREVEDLLKEGKKEIILVAQDTTSYGIDLYRKQALPDLLRRLNSLNGEFWIRVMYLHPDHLTEEIISAMLELDKVVKYFDVPVQHGSDKILKLMGRTKSSEELKKMLSSIRERFPDAVLRTSIIVGFPGETEEDFEELKQFVEEIQFDKLGAFVYSDEEGTVAFNLKEKVDPEMAKRRQEELLLLQAEISNSRLDRFVGKKLKFLVEGKEGKFLVGRTWTEAPEVDGVVFVRGKGKIGDFLEVVIKEHDEYDMWGSVILEHHHHHH”, the “soluble on expression in E. coli” value was “soluble”.
For “MAHHHHHHMGLLNTKPCSLIPAKEAFEREKKIYDKAILSFDGVNGYDVYNCSVPFTYDGKTYIFGRVEKKDEWVHSNSILFEKVGENRYRRHPTSITYNLEDPFVVKIHGEMVLGGTHVTKNGGKVSDYRCEFYHGTPLNLKYFSSGPSKMKDIRLVELADGKIGVFTHFRTEGSCLTGFATIDKIEDLTVEVINSAKLINHRPFGDAWGGPSQVYLLSSGLLGCISHHGYLLDQKDDIQLRIYACTSFVFDPATYDVYNFKIIGTKGCFPPCEPKLPHLADCAFVSGIEMRDDGKCNLYSGIGDVAEGCIVIDYPFEGYGKIVSDVAF”, the “soluble on expression in E. coli” value was “soluble”.
For “MAVNQDTLYVKGDRNVEVTKREVTLGDLVSMECSNRVILPHLKTMKVLKIPENGEKRYVISILKIIACIHEKYPGLEVQNLGETDLIVTYEMQKTPSK”, the “soluble on expression in E. coli” value was “soluble”.
For “MTIKYLTKNDVLAACIGGSVYASGGGGFYEHGLEMGEAAVALSPVVLKTIDEFEEDDLIITQTAIGAPAGTTDWQMLGKDYIRAVELLLEKHPHPEKIKGILTPQNGKSSSTNGWLSASALGLAVVHATGDIRAHPTGKMGNMGVANDTTYETIQAVSGGRRETGRHIELSVQGTAAYTSKILRIASDLSGGFIAAARHPLTASYIKQNAVIGGLSKAIELGYCILEHQNEDGSSIIDAIVKHTHGEILAKGKVVAKDMTYTDEAFDVGKVKIKTESDNVTLHVQNEFMAVDSQALGRVATYPDVITLFRAKDAKALSTDEISIDEEVVVFKISHKHFPLSTGVKDPSVYPEVENVLGIDLYRHAFKLEHHHHHH”, the “soluble on expression in E. coli” value was “soluble”.
With “MSLKSIFISGAANGIGKAVALKFLHEGWLVGAYDLAEITYSHPNLRWGYLNVRQSESWDKALEDFATHTGGTIDVVDNNAGVIIEGPLQDAEEGSVDKLLAINVNGVTLGARAAHPYLARTPGAQLLNMSSASAVYGQPQIAVYSASKFYVAGLTEALNLEWRKDDIRVVDVWPLWAKTDLVNGVKAKSLKRLGVRITPEQVAQAVWDAVHPKSRWAKGKVHHGVSKLDKALYLMKSLSPDRVAMCFARLIAGEGHHHHHH” the “soluble on expression in E. coli” value was “soluble”.
For “MSSEDFYRELKQRSLFEAIHLIEQELLKVESQIGTDALPKNEKLNLKVNASLGFENAQLVSTKPLGKDKLALETNLIGLTGEQGVLPQHYSELALHRLKEGDHAMVDFYDIFNHRLLSLYYRSWQLSQLTIQARAHAKNQRSPLTDCMSSLTGGGNDLALHYGGMYASPTRSKGALKSILECLSGCQIRIHEFQGQWMRLSKSEQTRLVSKSMPEGQFAQLGAGASLGKKAWNINASTTIEFLPKESKQVTNLLPKTNTLKTIKQVAGDFIGKHKHVKWQLTTKHSLLPQVQISKQQGQLGVGSVLKKHERTEDRNITITV”, the “soluble on expression in E. coli” value was “not soluble”.
In the case of “MGSDKIHHHHHHMIGFEELNLQPGTRLQLMRHRGRTPVQYLSTFIGMERNEYLLLRLPKAQGTFLTFYDGEKVTVRVFSGVMISSFDASVIQTIHHPLNCLCISFPHAIQVKKIRREMRIKVDIEGRLGLQDRTILPVKLTNISATGCQILVDRDIGKVDGQVVLNFNIAQLHDDETSAMTLEAKVRNVVPAGLSGGASFLAGLEFVALESNVQLLVRHYVYECLVDRRQNLV”, the “soluble on expression in E. coli” value was “not soluble”.
For “MIEIEINNAQEITSALERLAQATAHRAPLMRSIAGTMESAVAQNFEVGGRPAWKKLKIRQGTPLVDTENLMASITSEYNNNEAIVGTNEPYAAIHQFGGKAGRGRKVAIPARPFLILTPQDEADILEDIQDYFQLLIK”, the “soluble on expression in E. coli” value was “not soluble”.
With “MAHHHHHHMTSGPNNTTNIYDPIEVARANPYFKRNHMGQVTCTLCGIYCPEENNFLKHIAGKTHALQLERRQHKELRHLRLQEEERLNTEAEERARKEEALLALSGGQAGSGAAGGAGALSSAAAAAANARFGTPLYSFRTEHDEVAYRTKVWIEVMFTQAEEGTRPLHRWLSAREQHVEKPPDDYFVYLLFACEGYTTVALKFPAKANRSQPRDVLEEADGSTSEAYWCSWDPLQKVYTLFFALSR” the “soluble on expression in E. coli” value was “soluble”.
For “MGSDKIHHHHHHMSILTDSNETSHLPDSCSSTLGKQNFHNSLFSVPEAFEFSLVVVNDLVFAKRGKYLTDAELVVMRGALNNLDYEEIAHNSNYTVNYLQRCVAPLLWDTLSETIGNGDRVGKKKLRQILEELNQKYHIQSPFEPYLTLSSSDNSSLIIRGQLPEISNFYGRIHELNLLKELIFKHRCITLVGVAGVGKSSLATKLIVELSKKPRRQFDALIWKSLSHIPSLPELTHELIALIQPSLIPELPLSSSTHNLISILIQQLQSCPCLLVLDGFEALFQRSNFTERLEYSIFLNRLIDEASPSCLLLTTRILPDELNILIKNNPSTIKVFKVNGLDIDAATQLLSDLGLQQEENYQSLINTYWGNPLELKNVVSRIERFFSGSTLKFLENKTTLISLQLQTMLNEMFGQVLSDLQRRIMICITEDLVLTSQPISFAKLLTRLRQLPNLPVSTSELITDLEKLERLSLIESGKDNTTKEITFTLQPVVKKYINTDPAGLVHPSEQFTPYSTTTQKNTHAH”, the “soluble on expression in E. coli” value was “not soluble”.
With “MSLDETPTIHILWINAGLSCDGDSVALTAAMQPSIEEIVLGVLPGLPKIAVHWPLIDFECGPVGGSDTFIEWFFKGERGEIDPFVLVVEGSIPNESIKPEGYWCGFGDNPETGQPITTSEWIDRLAPKALAVVAIGTCATYGGIHAMAGNPTGAMGVPDYLGWDWKSQAGIPIVCVPGCPIQPDNFSETLTYLLYQAAGAAPMIPLDDKLRPTWLFGATVHEGCDRAGYYEQGQFALTYDSPKCLVKLGCWGPVVKCNVPKRGWMNGIGGCPNVGGICIACTMPGFPDKFMPFMDEPPGAKVSSSASGAYGAVVRKLRTLTARTVDKEPKWRHTGDRITTGYREGHHHHHH” the “soluble on expression in E. coli” value was “not soluble”.
For “MSLIYLRKANERGHANHGWLDSWHTFSFANYYDPNFMGFSALRVINDDVIEAGQGFGTHPHKDMEILTYVLEGTVEHQDSMGNKEQVPAGEFQIMSAGTGIRHSEYNPSSTERLHLYQIWIMPEENGITPRYEQRRFDAVQGKQLVLSPDARDGSLKVHQDMELYRWALLKDEQSVHQIAAERRVWIQVVKGNVTINGVKASTSDGLAIWDEQAISIHADSDSEVLLFDLPPVEGGSHHHHHH”, the “soluble on expression in E. coli” value was “soluble”.
For “MGSDKIHHHHHHMLPSQRHAFSIPEDVIYLDAAYMSPIPNIATEAGCDGVLVKAAPWDMTINSYYDEVERVRELAASFVGASIDDVGVIPATSYGIAVAAANVHVTPGSVIMMMDNEHTSHRYAWYELAEKKGATVVTVPRRPDQEWGSALAAAIKGSTVPVSVVAGTIVHWFEGMSVDIEVVADAAHAVGAALVMDGTQWVGAVPFDVSRIRPDFLSFATYKFLLGPYRLAFLYADKKWQEAGKPIEFHSWNRKGGERPDFYLETMPDYLPGARRFDMGERSDFAVLPIAIRSLELLQSWGSTAVFERLVHLNELIWKEAEARGFEGPRKDLRAPHISVIELGQRFRPDFARNLKDNKAFVTVRGTKMRITPHVYNEEHDIRRLFELVDSLTR”, the “soluble on expression in E. coli” value was “not soluble”.
In the case of “MISHCRRLLATTTALVIASTAIAAAEPSAELIAAAKKEGMLTTVALPHDWCGYGDVIAAFKAKYPEITVNELNPDAGSADEVEAVKANKDNKGPQAPDVVDVGLAFGPQMKAEGLLQPYKVSTWAEIPDNVKDADGYWYGDYYGVMSMFVNKDLVKNVPKDWADLLKPEYSGQVALAGDPRASNQAILGVLAAGLSTGAKSGKEAGEAGLKYFADLNKAGNFLPVIGKAGTLAQGATPIIVAWDYNALSWKKTLNDNPPTEVVVPEKGVLAGVYVQGISAYAPHPNAAKLWMEHLYSDDGQLGWLKGYCHPIRFNAMVKAGKVPQELIDSLPPAAAYEKAIFPTLEEVDANKAAVTGGWDKVVGANVK”, the “soluble on expression in E. coli” value was “not soluble”.
For “MAHHHHHHMSLPRRMCMFATCQSNRKSCSMRQSSVTSEGYRYSSTFAAGRLFDAVYVINLDRRPDRWEFATQQLSRAGFLHEEYVRFPAVDGRNVDLQKAHACGLISRLGLLRLQEPEHRRIWGMDLNPGAVGCALSHALLWAQIAASRHRSVLVVEDDSLFPQDFHHKYEARAKQVPSDWELLYVSGLDTAGQAPQLRVAEGVCRVPQMHRTTNCYVVSHRGARLLLDACFPVTYQLDTMMTLRTAGDGAGGVPYVTVPNCYTLQPPLVVQATRMGSDIQSASGGVCDRDEVEEERARCRAAGWEVQETGTLVP”, the “soluble on expression in E. coli” value was “not soluble”.
